From patent US20140087995A1 (published 2014)
Numbered stars: 1 amine (or outer) side, 2 acyl side, 3 side chain; on linkers, the order of the positions; unused ones are H or OH. Bridge positions count the residues as written; N and C are the ends. * marks the point of attachment. C20 diacid = O=C(O)CCCCCCCCCCCCCCCCCCC(=O)*; γGlu = O=C(O)[C@H](CCC(=O)[*:2])N[*:1]

T1: rat amylin receptor (rat calcitonin receptor + rat RAMP 3) (rat, UniProt P32214 25-516; Q9JJ73 23-147)
T1 construct: whole, on cells; Membranes of BHK tk'ts 13 cells transiently transfected with the rat calcitonin receptor and rat RAMP 3; also called rAmylin-R; rat amylin 3(a) receptor
T1 sequence (looked up) 1: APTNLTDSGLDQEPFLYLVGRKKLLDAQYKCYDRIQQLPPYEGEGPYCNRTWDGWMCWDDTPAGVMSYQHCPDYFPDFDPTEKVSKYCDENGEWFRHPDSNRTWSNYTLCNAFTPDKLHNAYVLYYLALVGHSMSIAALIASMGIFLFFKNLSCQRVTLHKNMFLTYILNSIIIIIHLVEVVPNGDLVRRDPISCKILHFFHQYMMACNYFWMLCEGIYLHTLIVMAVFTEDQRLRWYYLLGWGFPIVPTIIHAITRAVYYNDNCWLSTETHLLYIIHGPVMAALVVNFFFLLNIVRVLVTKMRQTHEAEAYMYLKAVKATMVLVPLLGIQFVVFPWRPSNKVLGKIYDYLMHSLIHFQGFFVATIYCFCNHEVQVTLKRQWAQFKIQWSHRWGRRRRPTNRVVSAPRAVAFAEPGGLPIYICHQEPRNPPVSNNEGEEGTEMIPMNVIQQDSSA
T1 sequence (looked up) 2: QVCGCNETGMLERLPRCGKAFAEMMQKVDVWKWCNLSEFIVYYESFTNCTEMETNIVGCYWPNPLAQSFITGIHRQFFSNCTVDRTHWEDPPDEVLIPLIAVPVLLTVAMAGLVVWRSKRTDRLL

T2: rat calcitonin receptor (rat, UniProt P32214 25-516)
T2 construct: whole, on cells; Membranes of BHK tk'ts 13 cells transiently transfected with the rat calcitonin receptor; also called rCTR; rat calcitonin (a) receptor
T2 sequence (looked up): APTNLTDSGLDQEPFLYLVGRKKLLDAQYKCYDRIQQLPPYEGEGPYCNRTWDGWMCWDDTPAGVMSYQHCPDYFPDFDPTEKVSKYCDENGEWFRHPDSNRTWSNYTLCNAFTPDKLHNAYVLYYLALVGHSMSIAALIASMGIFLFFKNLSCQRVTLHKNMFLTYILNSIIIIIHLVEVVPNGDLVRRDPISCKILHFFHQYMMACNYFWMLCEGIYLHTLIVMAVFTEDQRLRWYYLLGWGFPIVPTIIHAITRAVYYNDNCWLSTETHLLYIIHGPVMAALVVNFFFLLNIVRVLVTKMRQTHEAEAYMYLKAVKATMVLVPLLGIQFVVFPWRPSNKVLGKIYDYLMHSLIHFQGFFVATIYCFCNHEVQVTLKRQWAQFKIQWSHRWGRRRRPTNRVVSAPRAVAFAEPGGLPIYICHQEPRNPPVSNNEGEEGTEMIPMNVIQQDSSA

T3: human calcitonin receptor (human, UniProt P30988 25-474)
T3 construct: whole, on cells; Membranes of a BHK tk'ts 13 cell line stably transfected with the human calcitonin receptor; also called hCTR; hCT
T3 sequence (looked up): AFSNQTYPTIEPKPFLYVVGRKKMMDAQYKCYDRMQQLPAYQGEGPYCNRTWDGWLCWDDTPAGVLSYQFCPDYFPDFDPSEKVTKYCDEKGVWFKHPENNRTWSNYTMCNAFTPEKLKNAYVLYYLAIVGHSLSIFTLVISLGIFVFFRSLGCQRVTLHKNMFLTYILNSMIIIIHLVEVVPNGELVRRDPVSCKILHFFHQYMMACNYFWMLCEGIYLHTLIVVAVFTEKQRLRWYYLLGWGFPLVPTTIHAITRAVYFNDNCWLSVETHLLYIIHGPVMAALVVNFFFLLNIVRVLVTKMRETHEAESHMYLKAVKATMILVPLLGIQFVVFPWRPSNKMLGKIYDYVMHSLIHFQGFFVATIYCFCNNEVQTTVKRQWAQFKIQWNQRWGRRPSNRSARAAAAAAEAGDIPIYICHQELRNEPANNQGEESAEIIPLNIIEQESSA


Assays:
[1] = target: T1, rat amylin receptor (rat calcitonin …); experiment: SPA competition vs 125I-rat amylin, membranes with rat CTR + rat RAMP3 (Assay VI)
Description: The binding assay was performed using scintillation proximity assay (SPA) beads (RPNQ0001) from PerkinElmer and cell membranes from the Amylin 3(a)/CRE-luc cells (as described in Assay (II)) were used. Membranes were prepared in the following way; the cells were rinsed with PBS and incubated with Versene for approximately 5 min before harvesting. The cells were flushed with PBS and the cell-suspension was centrifuged for 5 min at 1000 rpm. Cells were homogenized (ultrathurrax) in a buffer containing 20 mM Na-HEPES and 10 mM EDTA (pH 7.4) and centrifuged at 20.000 rpm for 15 min. The resulting pellet was resuspended, homogenized and centrifuged (20.000 rpm, 15 min) in a buffer containing 20 mM Na-HEPES and 0.1 mM EDTA (pH 7.4, buffer 2). The resulting pellet was resuspended in buffer 2 and protein concentration was measured (BCA protein Assay, Pierce). The homogenate was kept cold during the whole procedure. The membranes were kept at −80° C. until use. The assay was performed in a 384 well Optiplate (PerkinElmer) in a total volume of 40 ul. Membranes were mixed with SPA beads. Final concentration of membranes 35 ng/μL final and SPA beads was 0.05 mg/well. Test-compounds were dissolved in DMSO and further diluted in assay buffer (50 mM Hepes, pH 7.4, 1 mM CaCl2, 5 mM MgCl₂, 0.1% OA and 0.02% Tween20). […] The final mixture was incubated with shaking at 400 rpm for 120 min at 25° C. prior to centrifugation (1500 rpm, 10 min). Samples were analyzed on TopCounter™ (Packard). The IC₅₀ was calculated using (one site binding competition analysis) GraphPad Prism5 as a measure of receptor affinity.
Cells were grown in DMEM with 10% FBS and 1% Pen/Strep. Approximately 48 hours after transfection, the cells were harvested and membranes were prepared.

rat calcitonin receptor [2] = target: T2, rat calcitonin receptor; experiment: IC50 at rCTR divided by IC50 at rAmylin-R (reference)
rat calcitonin receptor [3] = target: T2, rat calcitonin receptor; experiment: SPA competition vs 125I-calcitonin, membranes with rat CTR (Assay VIII)
[4] = target: T3, human calcitonin receptor; experiment: IC50 at hCTR divided by IC50 at hAmylin-R (reference)
Description: The resulting pellet was resuspended, homogenized and centrifuged (20.000 rpm, 15 min) in a buffer containing 20 mM Na-HEPES and 0.1 mM EDTA (pH 7.4, buffer 2). The resulting pellet was resuspended in buffer 2 and protein concentration was measured (BCA protein Assay, Pierce). The homogenate was kept cold during the whole procedure. The membranes were kept at −80° C. until use. The assay was performed in a 384 well Optiplate (PerkinElmer) in a total volume of 40 ul. Membranes were mixed with SPA beads. Final concentration of membranes 35 ng/μL final and SPA beads was 0.05 mg/well. Test-compounds were dissolved in DMSO and further diluted in assay buffer (50 mM Hepes, pH 7.4, 1 mM CaCl2, 5 mM MgCl₂, 0.1% OA and 0.02% Tween20). […] The final mixture was incubated with shaking at 400 rpm for 120 min at 25° C. prior to centrifugation (1500 rpm, 10 min). Samples were analyzed on TopCounter™ (Packard). The IC₅₀ was calculated using (one site binding competition analysis) GraphPad Prism5 as a measure of receptor affinity.
Membranes were prepared in the following way; the cells were rinsed with PBS and incubated with Versene for approximately 5 min before harvesting. The cells were flushed with PBS and the cell-suspension was centrifuged for 5 min at 1000 rpm. Cells were homogenized (Ultrathurrax) in a buffer containing 20 mM Na-HEPES and 10 mM EDTA (pH 7.4) and centrifuged at 20.000 rpm for 15 min. The resulting pellet was resuspended, homogenized and centrifuged (20.000 rpm, 15 min) in a buffer containing 20 mM Na-HEPES and 0.1 mM EDTA (pH 7.4, buffer 2). The resulting pellet was resuspended in buffer 2 and protein concentration was measured (BCA protein Assay, Pierce). The homogenate was kept cold during the whole procedure. The membranes were kept at −80° C. until use. Assay was performed in a 384 well Optiplate (PerkinElmer) in a total volume of 40 ul. Membranes were mixed with SPA beads.

Binder | IC50 [1] | Ratio rCT/rAmylin binding (rat calcitonin receptor [2]) | IC50 (rat calcitonin receptor [3]) | Ratio hCT/hAmylin binding [4]
KCNTATCATQRLAEFLRHSSPNFGAIPSSTNVGSNTY (C20 diacid-gGlu-2xOEG on the alpha amino group of the N-terminal residue (Lys 1); disulfide bridge Cys2-Cys7; C-terminal amide, modifications are with respect to human amylin; also called compound 19) | 1.02 nM | 93.6 | 95.6 nM | 36.7
{C20 diacid-γGlu}-KCNTATCATQRLANFLRHSSPNFGAIPSSTPVGSETY-NH2 (disulfide 2-7; SMILES CC[C@H](C)[C@H](NC(=O)[C@H](C)NC(=O)CNC(=O)[C@H](Cc1ccccc1)NC(=O)[C@H](CC(N)=O)NC(=O)[C@@H]1CCCN1C(=O)[C@H](CO)NC(=O)[C@H](CO)NC(=O)[C@H](Cc1c[nH]cn1)NC(=O)[C@H](CCCNC(=N)N)NC(=O)[C@H](CC(C)C)NC(=O)[C@H](Cc1ccccc1)NC(=O)[C@H](CC(N)=O)NC(=O)[C@H](C)NC(=O)[C@H](CC(C)C)NC(=O)[C@H](CCCNC(=N)N)NC(=O)[C@H](CCC(N)=O)NC(=O)[C@@H](NC(=O)[C@H](C)NC(=O)[C@@H]1CSSC[C@H](NC(=O)[C@H](CCCCN)NC(=O)CC[C@H](NC(=O)CCCCCCCCCCCCCCCCCCC(=O)O)C(=O)O)C(=O)N[C@@H](CC(N)=O)C(=O)N[C@@H]([C@@H](C)O)C(=O)N[C@@H](C)C(=O)N[C@@H]([C@@H](C)O)C(=O)N1)[C@@H](C)O)C(=O)N1CCC[C@H]1C(=O)N[C@@H](CO)C(=O)N[C@@H](CO)C(=O)N[C@H](C(=O)N1CCC[C@H]1C(=O)N[C@H](C(=O)NCC(=O)N[C@@H](CO)C(=O)N[C@@H](CCC(=O)O)C(=O)N[C@H](C(=O)N[C@@H](Cc1ccc(O)cc1)C(N)=O)[C@@H](C)O)C(C)C)[C@@H](C)O, modifications are with respect to human amylin; also called compound 28) | 1.22 nM | 44.9 | 54.9 nM | 20.5
KCNTATCATQRLANFLRHSSPNFGAIPSSTNVGHNTY (C20 diacid-gGlu on the alpha amino group of the N-terminal residue (Lys 1); disulfide bridge Cys2-Cys7; C-terminal amide, modifications are with respect to human amylin; also called compound 40) [N^α1-[(4S)-4-carboxy-4-(19-carboxynonadecanoylamino)butanoyl]-[Arg17,Pro21,Pro27,His34]-h-amylin] | 1.5 nM | 46.2 | 69.2 nM | 31.1
KCNTATCATQRLANFLRHSSPNFGAIPSSTNVGRNTY (C20 diacid-gGlu on the alpha amino group of the N-terminal residue (Lys 1); disulfide bridge Cys2-Cys7; C-terminal amide, modifications are with respect to human amylin; also called compound 39) [N^α1-[(4S)-4-carboxy-4-(19-carboxynonadecanoylamino)butanoyl]-[Arg17,Pro21,Pro27,Arg34]-h-amylin] | 1.77 nM | 54.5 | 96.4 nM | 29
{C20 diacid-γGlu}-KCNTATCATQRLANFLRHSSPNFGAIPSSTNVGPETY-NH2 (disulfide 2-7; SMILES CC[C@H](C)[C@H](NC(=O)[C@H](C)NC(=O)CNC(=O)[C@H](Cc1ccccc1)NC(=O)[C@H](CC(N)=O)NC(=O)[C@@H]1CCCN1C(=O)[C@H](CO)NC(=O)[C@H](CO)NC(=O)[C@H](Cc1c[nH]cn1)NC(=O)[C@H](CCCNC(=N)N)NC(=O)[C@H](CC(C)C)NC(=O)[C@H](Cc1ccccc1)NC(=O)[C@H](CC(N)=O)NC(=O)[C@H](C)NC(=O)[C@H](CC(C)C)NC(=O)[C@H](CCCNC(=N)N)NC(=O)[C@H](CCC(N)=O)NC(=O)[C@@H](NC(=O)[C@H](C)NC(=O)[C@@H]1CSSC[C@H](NC(=O)[C@H](CCCCN)NC(=O)CC[C@H](NC(=O)CCCCCCCCCCCCCCCCCCC(=O)O)C(=O)O)C(=O)N[C@@H](CC(N)=O)C(=O)N[C@@H]([C@@H](C)O)C(=O)N[C@@H](C)C(=O)N[C@@H]([C@@H](C)O)C(=O)N1)[C@@H](C)O)C(=O)N1CCC[C@H]1C(=O)N[C@@H](CO)C(=O)N[C@@H](CO)C(=O)N[C@H](C(=O)N[C@@H](CC(N)=O)C(=O)N[C@H](C(=O)NCC(=O)N1CCC[C@H]1C(=O)N[C@@H](CCC(=O)O)C(=O)N[C@H](C(=O)N[C@@H](Cc1ccc(O)cc1)C(N)=O)[C@@H](C)O)C(C)C)[C@@H](C)O, modifications are with respect to human amylin; also called compound 29) | 0.322 nM | 67 | 21.6 nM | 13.9
KCNTATCATQRLANFLRHSSPNFGAIPSSTNVGSETY (C20 diacid-gGlu on the alpha amino group of the N-terminal residue (Lys 1); disulfide bridge Cys2-Cys7; C-terminal amide, modifications are with respect to human amylin; also called compound 23) [N^α1-[(4S)-4-carboxy-4-(19-carboxynonadecanoylamino)butanoyl]-[Arg17,Pro21,Pro27,Glu35]-h-amylin] | 1.12 nM | 71.3 | 79.9 nM | 25
KCNTATCATQRLANFLRHSSPNFGAIPSSTNVGSKTY (C20 diacid-gGlu on the alpha amino group of the N-terminal residue (Lys 1); disulfide bridge Cys2-Cys7; C-terminal amide, modifications are with respect to human amylin; also called compound 34) [N^α1-[(4S)-4-carboxy-4-(19-carboxynonadecanoylamino)butanoyl]-[Arg17,Pro21,Pro27,Lys35]-h-amylin] | 1.72 nM | 52 | 89.2 nM | 64.4
